Literature values in publication PMC5472698.

Target: CD21 (Homo sapiens) (UniProt P20023)
Sequence (P20023 21-1033): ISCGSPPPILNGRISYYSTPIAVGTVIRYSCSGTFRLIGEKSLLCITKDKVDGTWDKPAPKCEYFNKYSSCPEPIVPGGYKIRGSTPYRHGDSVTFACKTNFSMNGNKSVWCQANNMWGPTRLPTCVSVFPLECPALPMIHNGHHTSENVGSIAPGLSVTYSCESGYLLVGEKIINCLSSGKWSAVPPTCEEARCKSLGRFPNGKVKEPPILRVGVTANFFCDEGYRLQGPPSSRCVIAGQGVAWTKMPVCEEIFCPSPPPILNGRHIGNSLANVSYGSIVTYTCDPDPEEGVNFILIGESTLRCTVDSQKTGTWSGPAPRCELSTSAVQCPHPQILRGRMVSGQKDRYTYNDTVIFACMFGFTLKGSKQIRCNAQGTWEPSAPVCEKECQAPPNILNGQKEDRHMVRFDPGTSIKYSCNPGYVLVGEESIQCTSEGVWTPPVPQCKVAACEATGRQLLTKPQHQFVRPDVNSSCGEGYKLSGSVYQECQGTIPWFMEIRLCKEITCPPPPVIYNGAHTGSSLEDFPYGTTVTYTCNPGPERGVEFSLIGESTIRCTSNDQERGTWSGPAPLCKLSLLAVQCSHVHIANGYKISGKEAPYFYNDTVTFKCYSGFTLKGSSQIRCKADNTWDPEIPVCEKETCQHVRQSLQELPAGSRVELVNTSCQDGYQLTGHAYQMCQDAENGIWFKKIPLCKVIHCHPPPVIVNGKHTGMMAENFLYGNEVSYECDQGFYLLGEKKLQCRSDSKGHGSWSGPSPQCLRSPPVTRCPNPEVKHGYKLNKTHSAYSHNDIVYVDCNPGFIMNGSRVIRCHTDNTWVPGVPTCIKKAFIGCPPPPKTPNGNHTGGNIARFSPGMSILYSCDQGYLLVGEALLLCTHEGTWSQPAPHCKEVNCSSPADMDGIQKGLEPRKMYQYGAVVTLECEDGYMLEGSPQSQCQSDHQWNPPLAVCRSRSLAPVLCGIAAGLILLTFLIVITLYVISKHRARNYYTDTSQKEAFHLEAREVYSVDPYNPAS

Chain of gp350/220 (P03200 whole entry): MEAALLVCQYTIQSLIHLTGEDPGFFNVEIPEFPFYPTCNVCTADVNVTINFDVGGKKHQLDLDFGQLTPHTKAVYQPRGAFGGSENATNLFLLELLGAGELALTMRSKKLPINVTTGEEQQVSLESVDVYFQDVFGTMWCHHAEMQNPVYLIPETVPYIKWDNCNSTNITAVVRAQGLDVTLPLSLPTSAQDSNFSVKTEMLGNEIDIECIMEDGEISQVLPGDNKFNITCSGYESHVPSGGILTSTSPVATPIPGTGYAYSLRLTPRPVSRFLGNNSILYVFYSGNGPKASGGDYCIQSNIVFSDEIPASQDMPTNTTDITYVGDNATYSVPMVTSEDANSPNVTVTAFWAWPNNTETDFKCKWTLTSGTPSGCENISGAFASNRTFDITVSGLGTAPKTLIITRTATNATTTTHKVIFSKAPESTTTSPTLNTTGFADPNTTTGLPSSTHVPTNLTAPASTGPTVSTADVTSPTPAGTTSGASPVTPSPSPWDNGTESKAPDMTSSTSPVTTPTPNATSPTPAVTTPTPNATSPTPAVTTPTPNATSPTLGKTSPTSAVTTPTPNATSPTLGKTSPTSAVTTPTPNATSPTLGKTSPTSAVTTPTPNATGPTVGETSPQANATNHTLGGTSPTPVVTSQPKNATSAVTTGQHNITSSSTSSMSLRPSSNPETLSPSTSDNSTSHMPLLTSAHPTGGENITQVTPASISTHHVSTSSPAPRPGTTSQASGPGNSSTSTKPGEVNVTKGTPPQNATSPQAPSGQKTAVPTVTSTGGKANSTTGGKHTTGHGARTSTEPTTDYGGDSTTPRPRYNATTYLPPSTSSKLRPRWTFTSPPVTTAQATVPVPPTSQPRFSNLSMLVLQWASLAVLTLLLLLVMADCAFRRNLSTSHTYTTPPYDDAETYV

## gp350/220 (from UniProt P03200)
  Kd: 12 nM
